# B1: RasKi: 8-mer 603-610 (peptide)
# peptide: MDYKDDEG
# notes: It was co-expressed or transduced by lentivirus in some cell assays; also called 8-mer WT; 8-mer peptide
# Molecular target: T1, KRAS-G12V (Homo sapiens, UniProt P01116 1-189, limits assumed)
# T1 construct: also called G12V mutant of KRAS
# Test: disruption of the JAK1/KRAS-G12V interaction; the sentence names TR-FRET (FIG. 2B) and GST pull-down (FIG. 2C) and does not say which gave the value; competitor JAK1
binder,measurement,value
B1,IC50,870 nM

# From US20220306688A1 (EMORY UNIVERSITY, published 2022)
